# Article PMC4559421, “Interaction of Yna1 and Yna2 Is Required for Nuclear Accumulation and Transcriptional Activation of the Nitrate Assimilation Pathway in the Yeast Hansenula polymorpha”
# Residue numbers refer to the chain shown, from its start.
# T1: HIS-Yna2p(1-180) (Hansenula polymorpha (syn. Pichia …, UniProt Q9HFM7 1-180))
# T1 sequence: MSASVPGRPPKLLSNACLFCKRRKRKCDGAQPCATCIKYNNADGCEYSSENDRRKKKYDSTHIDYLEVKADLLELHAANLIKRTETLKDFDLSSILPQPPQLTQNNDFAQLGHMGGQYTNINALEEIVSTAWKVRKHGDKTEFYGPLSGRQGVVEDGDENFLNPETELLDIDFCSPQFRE
# T2: HIS-Yna1p(1-185) (Hansenula polymorpha (syn. Pichia …, UniProt O93984 1-185))
# T2 sequence: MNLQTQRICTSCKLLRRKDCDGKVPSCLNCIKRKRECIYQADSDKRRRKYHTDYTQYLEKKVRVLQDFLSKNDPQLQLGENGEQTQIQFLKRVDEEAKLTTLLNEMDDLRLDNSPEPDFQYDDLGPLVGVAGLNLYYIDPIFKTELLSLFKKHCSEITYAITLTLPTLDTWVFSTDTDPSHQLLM
# B1: YNT1 probe 1 (dsDNA)
# DNA 1: CCCGCTCATCGGAGAATATTCTGCTCAAAATTAAGGATGCCCAT
# DNA 2: ATGGGCATCCTTAATTTTGAGCAGAATATTCTCCGATGAGCGGG
# B2: YNT1 probe 2 (dsDNA)
# DNA 1: GGCTAGCATCCCGCTCATCGGAGAATATTCTGC
# DNA 2: GCAGAATATTCTCCGATGAGCGGGATGCTAGCC
# B3: YNT1 probe 2 m1 (dsDNA)
# DNA 1: B2 DNA 1 with C11A, C12A, G13T
# DNA 2: B2 DNA 2 with C21A, G22T, G23T
# B4: YNT1 probe 2 m2 (dsDNA)
# DNA 1: B2 DNA 1 with C19A, G20T, G21T
# DNA 2: B2 DNA 2 with C13A, C14A, G15T
# Columns and labels:
# Conditions in all cases: protein: recombinant; tags: His; chain copies: 2; label: 32P end label
# HIS-Yna2p(1-180) [1] = biological target: T1, HIS-Yna2p(1-180); assay: EMSA; poly(dIdC); EMSA: 75 ng protein in 10 ul KCl 1 mM, spermidine 80 mM (so in the source), 0.1 mg/ml poly(dIdC), on ice then 30 min at room temperature with probe; 6% PAGE, 50% glycerol, 0.5x TBE; pH not stated
# HIS-Yna1p(1-185) [2] = biological target: T2, HIS-Yna1p(1-185); assay: EMSA; poly(dIdC); complex diminished by 1x-2x unlabelled probe; EMSA: 75 ng protein in 10 ul KCl 1 mM, spermidine 80 mM (so in the source), 0.1 mg/ml poly(dIdC), on ice then 30 min at room temperature with probe; 6% PAGE, 50% glycerol, 0.5x TBE; pH not stated
# HIS-Yna2p(1-180) [3] = biological target: T1, HIS-Yna2p(1-180); assay: EMSA; poly(dIdC); no detectable complex; EMSA: 75 ng protein in 10 ul KCl 1 mM, spermidine 80 mM (so in the source), 0.1 mg/ml poly(dIdC), on ice then 30 min at room temperature with probe; 6% PAGE, 50% glycerol, 0.5x TBE; pH not stated
# HIS-Yna1p(1-185) [4] = biological target: T2, HIS-Yna1p(1-185); assay: EMSA; poly(dIdC); complex abrogated by 1x-2x unlabelled probe; less stable than with probe 1; EMSA: 75 ng protein in 10 ul KCl 1 mM, spermidine 80 mM (so in the source), 0.1 mg/ml poly(dIdC), on ice then 30 min at room temperature with probe; 6% PAGE, 50% glycerol, 0.5x TBE; pH not stated
# HIS-Yna1p(1-185) [5] = biological target: T2, HIS-Yna1p(1-185); assay: EMSA; poly(dIdC); complex formation disrupted; EMSA: 75 ng protein in 10 ul KCl 1 mM, spermidine 80 mM (so in the source), 0.1 mg/ml poly(dIdC), on ice then 30 min at room temperature with probe; 6% PAGE, 50% glycerol, 0.5x TBE; pH not stated
# HIS-Yna1p(1-185) [6] = biological target: T2, HIS-Yna1p(1-185); assay: EMSA; poly(dIdC); binding disrupted; EMSA: 75 ng protein in 10 ul KCl 1 mM, spermidine 80 mM (so in the source), 0.1 mg/ml poly(dIdC), on ice then 30 min at room temperature with probe; 6% PAGE, 50% glycerol, 0.5x TBE; pH not stated
binder,measurement,setting,value
B1,binding result,HIS-Yna2p(1-180) [1],binds
same,binding result,HIS-Yna1p(1-185) [2],binds
B2,binding result,HIS-Yna2p(1-180) [3],no binding
same,binding result,HIS-Yna1p(1-185) [4],binds
B3,binding result,HIS-Yna1p(1-185) [5],no binding
B4,binding result,HIS-Yna1p(1-185) [6],no binding
